From patent publication US20240324599A1, “PESTICIDAL ENZYMES FOR USE ON NEMATODES, INSECTS, AND MOLLUSKS” (priority 2023, published 2024)
Read-outs that look alike come from different tables or passages of the source.

Tests used:
Type in all cases: in vivo
[1] = system: SCN juveniles (SCN HG type 1.2.5.7, race 2)
Text: To identify an additional esterase enzyme with efficacy in reducing SCN viability, we performed an in-vitro plate assay with a Pseudomonas sp. esterase (SEQ ID NO: 248) free enzyme direct treatment. The Pseudomonas sp. esterase (SEQ ID NO: 248) was produced by fermentation in Bacillus subtilis. The enzyme was cloned into a Bacillus expression plasmid p1797 with isopropyl β-d-1-thiogalactopyranoside (IPTG) inducible expression. The plasmid was transformed into B. subtilis, and the gene sequence was confirmed. The strain was grown in rich media until an optical density (OD) 0.2-0.5 was reached. Enzyme expression was then induced by addition of […] IPTG. Following the culture harvest, cells were removed by filtration through a […] filter. The culture filtrate containing the secreted enzyme was then collected and used for further applications.
(§1) SCN eggs were obtained from SCN HG type 1.2.5.7, race 2. Eggs were rinsed 4 times with sterile water. Eggs were transferred to a 6-well plate and resuspended in 5 mL of 3 mM ZnSO4. The plate was sealed with parafilm, covered with aluminum foil to prevent light from entering the plate, and placed in a plate growth chamber at 25° C. and 80% relative humidity. After 6-7 days of incubation, an estimate of hatched SCN juveniles was obtained from the well to determine the overall number of juveniles per 10 μL. The concentration of the hatchery solution was adjusted until it consisted of 20-30 juveniles per 10 μL.
Potato dextrose agar media containing chloramphenicol and chlortetracycline was prepared and added to sterile twenty-four-well cell culture plates (1 mL per well). The plates were divided according to the pre-determined N-value for each treatment (N=12-24). Each treatment being tested was added to the agar surface within each well at a rate of 40 μL per well. Without allowing the treatments to dry, 10 μL of the prepared nematode mixture was added to the agar surface within each well.
To quantify the treatments' effects on nematode viability, the nematodes were examined under a dissecting microscope at 20× magnification. Initial (T0) values for the number of live juveniles, number of dead juveniles and total number of juveniles were recorded immediately after preparation of each well. The plates were then wrapped in parafilm around the open edge, encased in aluminum foil, and placed in secondary containment. The secondary containment was placed in a plant growth chamber at 25° C. and 80% relative humidity. At approximately 24 hours post addition of juveniles, the plates were evaluated, and the number of live juveniles, dead juveniles and total number of juveniles were recorded (T24).
The difference in percent death at T0 vs T24 was calculated by subtracting the percent dead at TO [(#dead juveniles/total #juveniles)×100] from the percent dead at T24 [(#dead juveniles/#total juveniles originally present)×100]. […] If the ANOVA indicated a significant difference existed among treatments, Tukey's HSD post hoc test was used to perform a pairwise contrast between each set of treatments. Different letters denote statistically significant results at P<0.05.
as §1, with “from” for “from SCN”, “rinsed four” for “rinsed 4”, “and 80-90%” for “and 80%”, “from each” for “from the”
Potato dextrose agar media containing chloramphenicol and chlortetracycline was prepared and added to sterile twenty-four-well cell culture plates (1 mL per well). […]

[2] = system: soybean cyst nematode (SCN, Heterodera glycines); assay: Controlled environment soybean seed treatment trial: SCN cysts on roots; settings: Table 16
soybean = assay: Field trial: Feruloyl Esterase soybean seed treatment, yield; settings: for Yield: soybean seed treatment, 1.0 fl oz/unit with Control Base Package
Text: 1 fl oz/unit of Feruloyl Esterase (SEQ ID NO:91) was coated onto soybean seeds treated with Fludioxinil fungicide, metalaxyl fungicide, thiamethoxam […], Seedwork 1037L polymer, and Sensient Red (colorant). A control treatment without esterase enzyme was also created. The seed treated with esterase and control seed was planted in replicated trials distributed across 5 replicated plots with 4 replicates of 30 ft^2 each at each site.

[3] = system: Diamondback moth (Plutella xylostella); assay: Diet-surface overlay (DSO) bioassay; settings: Table 44, Lipase 0.14 U/mL diet
Experimental: (§2) Diet-surface overlay bioassays are conducted with artificial diet mixes without antibiotics in 1.5 cm^2 cell bioassay trays(s). Artificial diets are commercially available from Southland Products Inc. Diets were prepared by dispersing 0.5 mL of molten diet to each 1.5 cm^2 cell. After solidification, 0.1 mL enzyme treatments were dispersed on top of diet in each cell and the tray was gently rocked in an orbital shaker to spread the liquid uniformly over the diet surface. Trays were placed under clean airflow until the surface of each cell was uniformly dried. One or two 16-cell sections were used per treatment (the number in larvae treated was 16 or 32).
(§3) One healthy first instar larva was placed into each treatment cell, each 16-cell section was covered with a re-sealable lid and incubated at 27° C. and light-dark period of 16:8 hrs. After 7 days, and according to the species, the number of individuals in the following developmental categories was recorded.
(§4) Diamondback moth (Plutella xylostella): Dead Larva (lack of movement), Larva Stage I (≤50% relative size), Larva Stage II (100% relative size, full size), Early Pupa (light green color), Late Pupa (light-dark brown color), and Adult.
(§5) Negative/untreated controls were treated with filtered water and positive controls were treated with lethal doses of Bacillus thuringiensis subsp. Kurstaki (Btk) spores at 1000 ppm.

[4] = system: Btk resistant Diamondback moth; assay: Diet-surface overlay (DSO) bioassay; settings: Table 45
Experimental: as §2, §3, §4, §5
However, both neutral proteases reduced the number of individuals reaching adult stage.

corn = assay: Field trial: PytH Esterase corn seed treatment, yield; settings: for Yield: corn seed treatment, 0.5 fl oz/unit with Control Base Package
Text: 0.5 fl oz/unit of PythH Esterase from recombinant Bacillus subtilis fermentation (SEQ ID NO: 255) was coated onto Hybrid corn seeds treated with Fludioxinil fungicide, ipconazole fungicide, peridium 1006 polymer, and Sensient Red (colorant). A control treatment without esterase enzyme was also created. The seed treated with esterase and control seed was planted in replicated trials distributed across 10 replicated plots with 4 replicates of 100 ft2 each at each site.

B1: Pseudomonas sp. Esterase (protein, listed as Pseudomonas sp.)
chain: MTEPLILQPVKPADACVIWLHGLGADRYDFLPVAEALQEILLSTRFVLPQAPTRPVTINGGYAMPSWYDIKAMSPARAIDRDELEASADRIIELIEEQRSSGIDASRIFLAGFSQGGAVVYHTAFLKWQGPLGGVLALSTYAPTFSDELELSASQQRIPVLSLHGQFDNVVQNSMGRTAYEYLKAHGVTVTWQEYPMEHEVLPEEIRDIGTWLSERLR
Difference in Percent Death of Nematodes for 0 to 24 Hours ([1]; Table 17, 40 μL per well, water control 4%): 22% | Difference in Percent Death of Nematodes for 0 to 24 Hours ([1]; Table 32, 40 μL of each treatment per well, water only 4%): 22% | difference in percent death during 24 hours ([1]; text to Table 32): 22% | % Comparison to Control ([2]; base control = 100%, change in brackets): 90% (−10%) | Average cysts per g of root tissue ([2]; seed treatment, soybean 2830E3, concentrate = 4× volumetric concentration, base control 244.3): 220.2 cysts per g of root tissue

B2: Beauveria bassiana Feruloyl Esterase A2 (protein, listed as Beauveria bassiana)
chain: MLSLLGFLGFAALAAAAPVRDQAFIPRTLVNRSIYDKLALYAGYTQLSNTGICARPSVPGVLYQFVESKDTDTQVSIWKVDAYKEFVIAIPGTSSARDNETNFDFALVPYQADNVRCPSCRVHKGYQAAWRSVMKQVQGNLTNLLGIHPDYTVTLTGHSLGGGLVSIAFPTLRNGPYNVTQAYTYGQPRAGNGAFANYVDGISGASDKEAGIFYRVTHANDLIPKLPPGIFGYKHSRTEYWESKPSMDNAASTYRCYGQEPADCNRNATGIDSKVHVTYAGMNVTCNKS
modifications: Feruloyl Esterase A2
Yield (soybean; control 63.99): 64.86 Bu/A | Yield (soybean; control 4303.4): 4361.9 Kg/ha | yield versus base seed treatment package, in words (soybean; text to Table 56, 1 fl oz/unit): increased the yield

B3: Bacillus thuringiensis Lipase (Lip1) (protein, listed as Bacillus thuringiensis)
chain: MRLMRRCVALLIVFFIMAPMISTNVRAGVVKELKTGFPDQEVFTPGEWFLGQKPANYDENKPPILFVQGRNGNADSWYGKTVYHDINDMYDYALKAGYQTVFIQLYDAAGKGSASQWDNGKLLAQKLEEIYNHFGKKVNIVAHSKGGIDTQAALVGYGANRFVGNVITLATPHHGSNLADLSYSWWAGWLASILGQKDDGTYSLQMGEMAKFRSTIDNNPAAKLNRYYTVTGTSWGPVFSALSMGGLYLSSYGSNDGLVNECSAKLPYGTHLFTDSRFDHDNIRKGSAVFARIEPYLRTANVPVPALVASSTSSNENIEQLNTTSNQSILGGELPQNQWIEQTVAVDKKAEGIVSILTASSDVEVQMISPKGKVYTNKDSVITTGEGESFFGGATIRTFKFDKMDVGEWKVKMMTKQSKDAYLVVSDYKTGAPFVLQMPTKVKANKSEYKLKKSPVAPEMKGDLSITVRVVNKEGKLVSEFNELQNVNNNTFTGALKNIKQPGVYNVTMDIKGMNKEGKSYSRTIVKSVYVEK
modifications: Lipase (Lip1 H192)
Dead Larva ([3]; individuals of n = 16 after 7 days, water 0): 0 | Larva Stage I ([3]; n = 16, water 0): 0 | Larva Stage II ([3]; n = 16, water 0): 0 | Early Pupa ([3]; n = 16, water 3): 3 | Late Pupa ([3]; n = 16, water 3): 13 | Adult ([3]; n = 16, water 10): 0 | Dead Larva ([4]; Btk resistant strain, individuals of n = 32 after 7 days, U/mL diet: SEQ 76 1.4, Bc 3.8, Pf 5.2, water 3): 1 | Adult ([4]; n = 32, doses as E86, water 0): 0 | Larva Stage I ([4]; n = 32, doses as E86, water 0): 9 | Larva Stage II ([4]; n = 32, doses as E86, water 0): 12 | Early Pupa ([4]; n = 32, doses as E86, water 7): 10 | Late Pupa ([4]; n = 32, doses as E86, water 22): 0

B4: Sphingobium wenxiniae (PytH) Esterase (protein, listed as Sphingobium wenxiniae)
chain: MTVTDIILIHGALNRGACYDAVVPLLEARGYRVHAPDLTGHTPGDGGHLSVVDMEHYTRPVADILARAEGQSILLGHSLGGASISWLAQHHPDKVAGLIYLTAVLTAPGITPETFVLPGEPNRGTPHALDLIQPVDEGRGLQADFSRLERLREVFMGDYPGEGMPPAEQFIQTQSTVPFGTPNPMEGRALEIPRLYIEALDDVVIPIAVQRQMQKEFPGPVAVVSLPASHAPYYSMPERLAEAIADFADAPAEYRQTATKAGPDRPAGADGGRADRADLP
Yield (corn; control 205.5): 208.8 Bu/A | Yield (corn; control 13820.1): 14042.0 Kg/ha | yield versus base seed treatment package, in words (corn; text to Table 57, 0.5 fl oz/unit): increased the yield
